The values that follow come from the Human Domainome abundance scans (Beltran et al. 2025).

± gives the uncertainty stated by the source.

The labels stand for the following.
B1: Chromodomain-helicase-DNA-binding protein 7, residues 2564 to 2605; numbered along this chain, Q9P2D1 (parent)
chain: DPDTRIPVINLEDGTRLVGEDAPKNKDLVEWLKLHPTYTVDM

Variants of B1 are the subject of the data set. Briefly: abundance fitness (aPCA) (normalised: wild type 0, dead -1); higher = more abundant; growth selection in yeast, the domain comes from the species named. The settings on record: Homo sapiens.
In the case of DPDTRIPVINLEDGTRLVGEDAPKNKDTVEWLKLHPTYTVDM [L28T], the abundance fitness is -0.355 ± 0.083.
As for DPDTRIPVINLEDGTRLVGEDAPKNKDNVEWLKLHPTYTVDM [L28N], the figure is -0.524 ± 0.1; as for DPDTRIPVINLEDGTRLVGEDAPKNKDQVEWLKLHPTYTVDM [L28Q], -0.841 ± 0.2; as for DPDTRIPVINLEDGTRLVGEDAPKNKDVVEWLKLHPTYTVDM [L28V], -0.185 ± 0.048.
As for DPDTRIPVINLEDGTRLVGEDAPKNKDYVEWLKLHPTYTVDM [L28Y], the figure is -0.499 ± 0.12.
To DPDTRIPVINLEDGTRLVGEDAPKNKDSVEWLKLHPTYTVDM [L28S] belongs -0.39 ± 0.062; to DPDTRIPVINLEDGTRLVGEDAPKNKDKVEWLKLHPTYTVDM [L28K], -0.454 ± 0.14.
For DPDTRIPVINLEDGTRLVGEDAPKNKDWVEWLKLHPTYTVDM [L28W], the abundance fitness is -0.827 ± 0.079.
To DPDTRIPVINLEDGTRLVGEDAPKNKDPVEWLKLHPTYTVDM [L28P] belongs -0.568 ± 0.11.
To DPDTRIPVINLEDGTRLVGEDAPKNKDMVEWLKLHPTYTVDM [L28M] belongs -0.321 ± 0.06; to DPDTRIPVINLEDGTRLVGEDAPKNKDLVEVLKLHPTYTVDM [W31V], -0.336 ± 0.059; to DPDTRIPVINLEDGTRLVGEDAPKNKDLVEFLKLHPTYTVDM [W31F], 0.223 ± 0.094.
To DPDTRIPVINLEDGTRLVGEDAPKNKDLVEALKLHPTYTVDM [W31A] belongs -0.166 ± 0.094; to DPDTRIPVINLEDGTRLVGEDAPKNKDLVEMLKLHPTYTVDM [W31M], -0.196 ± 0.11.
As for DPDTRIPVINLEDGTRLVGEDAPKNKDLVEPLKLHPTYTVDM [W31P], the abundance fitness was -0.141 ± 0.082.
As for DPDTRIPVINLEDGTRLVGEDAPKNKDLVELLKLHPTYTVDM [W31L], the figure is -0.492 ± 0.07.
Turning to DPDTRIPVINLEDGTRLVGEDAPKNKDLVETLKLHPTYTVDM [W31T], the abundance fitness is -0.398 ± 0.16.
To DPDTRIPVINLEDGTRLVGEDAPKNKDLVECLKLHPTYTVDM [W31C] belongs -0.301 ± 0.051.
Take DPDTRIPVINLEDGTRLVGEDAPKNKDLVERLKLHPTYTVDM [W31R]: the abundance fitness was -0.363 ± 0.072.
As for DPDTRIPVINLEDGTRLVGEDAPKNKDLVEYLKLHPTYTVDM [W31Y], the figure is -0.297 ± 0.064.
DPDTRIPVINLEDGTRLVGEDAPKNKDLVEILKLHPTYTVDM [W31I]: the abundance fitness is -0.463 ± 0.086.
Take DPDTRIPVINLEDGTRLVGEDAPKNKDLVESLKLHPTYTVDM [W31S]: the abundance fitness was -0.38 ± 0.084.
As for DPDTRIPVINLEDGTRLVGEDAPKNKDLVEQLKLHPTYTVDM [W31Q], the figure is -0.569 ± 0.16; as for DPDTRIPVINLEDGTRLVGEDAPKNKDLVEDLKLHPTYTVDM [W31D], -0.128 ± 0.065; as for DPDTRIPVINLEDGTRLVGEDAPKNKDLVEELKLHPTYTVDM [W31E], -0.099 ± 0.14.
To DPDTRIPVINLEDGTRLVGEDAPKNKDLVEGLKLHPTYTVDM [W31G] belongs -0.163 ± 0.046.
Regarding DPDTRIPVINLEDGTRLVGEDAPKNKDLVEWCKLHPTYTVDM [L32C], the abundance fitness was -0.343 ± 0.079.
To DPDTRIPVINLEDGTRLVGEDAPKNKDLVEWTKLHPTYTVDM [L32T] belongs -0.334 ± 0.14; to DPDTRIPVINLEDGTRLVGEDAPKNKDLVEWDKLHPTYTVDM [L32D], -0.332 ± 0.12.
To DPDTRIPVINLEDGTRLVGEDAPKNKDLVEWEKLHPTYTVDM [L32E] belongs -0.324 ± 0.074; to DPDTRIPVINLEDGTRLVGEDAPKNKDLVEWSKLHPTYTVDM [L32S], -0.255 ± 0.064; to DPDTRIPVINLEDGTRLVGEDAPKNKDLVEWIKLHPTYTVDM [L32I], -0.434 ± 0.093.
As for DPDTRIPVINLEDGTRLVGEDAPKNKDLVEWGKLHPTYTVDM [L32G], the figure is -0.214 ± 0.05; as for DPDTRIPVINLEDGTRLVGEDAPKNKDLVEWNKLHPTYTVDM [L32N], -0.342 ± 0.068; as for DPDTRIPVINLEDGTRLVGEDAPKNKDLVEWWKLHPTYTVDM [L32W], -0.574 ± 0.075.
Consider DPDTRIPVINLEDGTRLVGEDAPKNKDLVEWVKLHPTYTVDM [L32V], for which the abundance fitness was -0.586 ± 0.085.
As for DPDTRIPVINLEDGTRLVGEDAPKNKDLVEWFKLHPTYTVDM [L32F], the figure is -0.375 ± 0.14; as for DPDTRIPVINLEDGTRLVGEDAPKNKDLVEWAKLHPTYTVDM [L32A], -0.537 ± 0.095; as for DPDTRIPVINLEDGTRLVGEDAPKNKDLVEWRKLHPTYTVDM [L32R], -0.332 ± 0.078.
To DPDTRIPVINLEDGTRLVGEDAPKNKDLWEWLKLHPTYTVDM [V29W] belongs -0.416 ± 0.09; to DPDTRIPVINLEDGTRLVGEDAPKNKDLPEWLKLHPTYTVDM [V29P], 0.063 ± 0.083.
As for DPDTRIPVINLEDGTRLVGEDAPKNKDLKEWLKLHPTYTVDM [V29K], the figure is 0.229 ± 0.089; as for DPDTRIPVINLEDGTRLVGEDAPKNKDLEEWLKLHPTYTVDM [V29E], 0.052 ± 0.1.
For DPDTRIPVINLEDGTRLVGEDAPKNKDLNEWLKLHPTYTVDM [V29N], the abundance fitness came to 0.126 ± 0.053.
As for DPDTRIPVINLEDGTRLVGEDAPKNKDLMEWLKLHPTYTVDM [V29M], the figure is -0.095 ± 0.12.
As for DPDTRIPVINLEDGTRLVGEDAPKNKDLCEWLKLHPTYTVDM [V29C], the figure is -0.087 ± 0.081; as for DPDTRIPVINLEDGTRLVGEDAPKNKDLFEWLKLHPTYTVDM [V29F], -0.168 ± 0.069; as for DPDTRIPVINLEDGTRLVGEDAPKNKDLHEWLKLHPTYTVDM [V29H], 0.098 ± 0.073.
Consider DPDTRIPVINLEDGTRLVGEDAPKNKDLSEWLKLHPTYTVDM [V29S], for which the abundance fitness came to 0.063 ± 0.084.
To DPDTRIPVINLEDGTRLVGEDAPKNKDLREWLKLHPTYTVDM [V29R] belongs 0.121 ± 0.056; to DPDTRIPVINLEDGTRLVGEDAPKNKDLGEWLKLHPTYTVDM [V29G], -0.081 ± 0.064; to DPDTRIPVINLEDGTRLVGEDAPKNKDLAEWLKLHPTYTVDM [V29A], 0.11 ± 0.068.
As for DPDTRIPVINLEDGTRLVGEDAPKNKDLLEWLKLHPTYTVDM [V29L], the figure is -0.109 ± 0.053.
To DPDTRIPVINLEDGTRLVGEDAPKNKDLIEWLKLHPTYTVDM [V29I] belongs -0.15 ± 0.064.
Take DPDTRIPVINLEDGTRLVGEDAPKNKDLTEWLKLHPTYTVDM [V29T]: the abundance fitness was determined as 0.169 ± 0.14.
As to DPDTRIPVINLEDGTRLVGEDAPKNKDLDEWLKLHPTYTVDM [V29D], the abundance fitness was -0.022 ± 0.087.
Consider DPDTRIPVINLEDGTRLVGEDAPKNKDLVNWLKLHPTYTVDM [E30N], for which the abundance fitness was -0.065 ± 0.074.
With DPDTRIPVINLEDGTRLVGEDAPKNKDLVVWLKLHPTYTVDM [E30V], the abundance fitness is -0.391 ± 0.068.
Consider DPDTRIPVINLEDGTRLVGEDAPKNKDLVMWLKLHPTYTVDM [E30M], for which the abundance fitness is -0.313 ± 0.1.
As for DPDTRIPVINLEDGTRLVGEDAPKNKDLVIWLKLHPTYTVDM [E30I], the figure is -0.608 ± 0.12.
